For experiment [1], the target named is human insulin receptor B-isoform (human) (UniProt P06213). In words: SPA competition; ratio of the hIR-B column to the hIR-A column.
In experiment [2] the target is human insulin receptor A-isoform (human) (UniProt P06213). The experiment can be described thus: SPA competition against [125I]A14Tyr-insulin, solubilized hIR-A, analogue in yeast supernatant.
Experiment [3] concerns the target human insulin receptor B-isoform (human) (UniProt P06213). In words: SPA competition against [125I]A14Tyr-insulin, solubilized hIR-B, analogue in yeast supernatant.

These results are taken from patent publication US20110294729A1, “Novel Insulin Analogues” (Novo Nordisk A/S, priority 2008, published 2011).

Turning to “[A8H, B25H, B27E, desB30] human insulin (ligand)”, the Ratio B/A (relative hIR-B affinity over relative hIR-A affinity) in experiment [1] turned out to be 2.1. Besides, the figures for the relative affinity [% of HI] in experiment [2] and in experiment [3] were 67 % of HI and 140 % of HI, respectively.
